Data reported in patent publication US20060067886A1, “Gastrin receptor-avid peptide conjugates” (priority 1997, published 2006).

Experiment: Biodistribution of radiometal-DOTA-BBN conjugates in CF1 normal mice
Conditions: 1 hour post-injection

| SMILES | Avg % ID, Blood [% ID] | Avg % ID, Carcass [% ID] | Avg % ID, Heart [% ID] | Avg % ID, Kidney [% ID] | Avg % ID, L. Intestine [% ID] | Avg % ID, Liver [% ID] | Avg % ID, Lung [% ID] | Avg % ID, Muscle [% ID] | Avg % ID, Pancreas [% ID] | Avg % ID, S. Intestine [% ID] |
| --- | --- | --- | --- | --- | --- | --- | --- | --- | --- | --- |
| CSCC[C@H](NC(=O)[C@H](CC(C)C)NC(=O)[C@H](Cc1c[nH]cn1)NC(=O)CNC(=O)[C@@H](NC(=O)[C@H](C)NC(=O)[C@H](Cc1c[nH]c2ccccc12)NC(=O)[C@H](CCC(N)=O)NC(=O)CCCCNC(=O)CN1CCN(CC(=O)O)CCN(CC(=O)O)CCN(CC(=O)O)CC1)C(C)C)C(N)=O [149Pm-DOTA-5-Ava-BBN[7-14]NH2] | 0.47 ± 0.11 | 6.16 ± 0.75 | 0.06 ± 0.09 | 1.11 ± 0.29 | 3.18 ± 1.18 | 0.37 ± 0.20 | 0.17 ± 0.21 | 0.03 ± 0.04 | 4.25 ± 0.43 | 7.70 ± 0.66 |
| CSCC[C@H](NC(=O)[C@H](CC(C)C)NC(=O)[C@H](Cc1cnc[nH]1)NC(=O)CNC(=O)[C@@H](NC(=O)[C@H](C)NC(=O)[C@H](Cc1c[nH]c2ccccc12)NC(=O)[C@H](CCC(N)=O)NC(=O)CCCCCCCNC(=O)CN1CCN(CC(=O)O)CCN(CC(=O)O)CCN(CC(=O)O)CC1)C(C)C)C(N)=O [149Pm-DOTA-8-Aoc-BBN[7-14]NH2] | 0.23 ± 0.26 | 10.30 ± 1.84 | 0.00 ± 0.01 | 1.55 ± 0.47 | 4.43 ± 2.37 |  | 0.02 ± 0.04 | 0.01 ± 0.02 | 7.34 ± 3.51 | 7.84 ± 2.15 |
| CSCC[C@H](NC(=O)[C@H](CC(C)C)NC(=O)[C@H](Cc1cnc[nH]1)NC(=O)CNC(=O)[C@@H](NC(=O)[C@H](C)NC(=O)[C@H](Cc1c[nH]c2ccccc12)NC(=O)[C@H](CCC(N)=O)NC(=O)CCNC(=O)CN1CCN(CC(=O)O)CCN(CC(=O)O)CCN(CC(=O)O)CC1)C(C)C)C(N)=O [149Pm-DOTA-β-Ala-BBN[7-14]NH2] | 0.30 ± 0.32 | 1.64 ± 0.38 | 0.02 ± 0.02 | 0.61 ± 0.41 | 0.31 ± 0.06 | 0.23 ± 0.07 | 0.06 ± 0.04 | 0.00 ± 0.01 | 0.46 ± 0.23 | 0.95 ± 0.19 |
| CSCC[C@H](NC(=O)[C@H](CC(C)C)NC(=O)[C@H](Cc1cnc[nH]1)NC(=O)CNC(=O)[C@@H](NC(=O)[C@H](C)NC(=O)[C@H](Cc1c[nH]c2ccccc12)NC(=O)[C@H](CCC(N)=O)NC(=O)CN1CCN(CC(=O)O)CCN(CC(=O)O)CCN(CC(=O)O)CC1)C(C)C)C(N)=O [177Lu-DOTA-0-BBN[7-14]NH2] [metal not drawn] | 0.39 ± 0.34 | 4.34 ± 2.64 | 0.01 ± 0.02 | 0.58 ± 0.10 | 0.09 ± 0.12 | 0.19 ± 0.10 | 0.04 ± 0.06 | 0.02 ± 0.03 | 0.06 ± 0.10 | 1.27 ± 1.03 |

Same assay, conditions: 1 hour post-injection

| SMILES | Avg % ID, Spleen [% ID] | Avg % ID, Stomach [% ID] | Avg % ID/gm, Blood [% ID/gm] | Avg % ID/gm, Heart [% ID/gm] | Avg % ID/gm, Kidney [% ID/gm] | Avg % ID/gm, L. Intestine [% ID/gm] | Avg % ID/gm, Liver [% ID/gm] | Avg % ID/gm, Lung [% ID/gm] | Avg % ID/gm, Muscle [% ID/gm] | Avg % ID/gm, Pancreas [% ID/gm] |
| --- | --- | --- | --- | --- | --- | --- | --- | --- | --- | --- |
| CSCC[C@H](NC(=O)[C@H](CC(C)C)NC(=O)[C@H](Cc1c[nH]cn1)NC(=O)CNC(=O)[C@@H](NC(=O)[C@H](C)NC(=O)[C@H](Cc1c[nH]c2ccccc12)NC(=O)[C@H](CCC(N)=O)NC(=O)CCCCNC(=O)CN1CCN(CC(=O)O)CCN(CC(=O)O)CCN(CC(=O)O)CC1)C(C)C)C(N)=O [149Pm-DOTA-5-Ava-BBN[7-14]NH2] | 0.27 ± 0.13 | 0.77 ± 0.74 | 0.27 ± 0.06 | 0.42 ± 0.59 | 2.81 ± 0.66 | 3.53 ± 1.10 | 0.23 ± 0.13 | 0.78 ± 1.08 | 0.24 ± 0.25 | 22.1 ± 5.40 |
| CSCC[C@H](NC(=O)[C@H](CC(C)C)NC(=O)[C@H](Cc1cnc[nH]1)NC(=O)CNC(=O)[C@@H](NC(=O)[C@H](C)NC(=O)[C@H](Cc1c[nH]c2ccccc12)NC(=O)[C@H](CCC(N)=O)NC(=O)CCCCCCCNC(=O)CN1CCN(CC(=O)O)CCN(CC(=O)O)CCN(CC(=O)O)CC1)C(C)C)C(N)=O [149Pm-DOTA-8-Aoc-BBN[7-14]NH2] | 0.24 ± 0.06 | 0.66 ± 0.35 | 0.12 ± 0.13 |  |  | 4.14 ± 2.14 | 0.19 ± 0.12 | 0.09 ± 0.14 | 0.09 ± 0.21 | 28.29 ± 13.26 |
| CSCC[C@H](NC(=O)[C@H](CC(C)C)NC(=O)[C@H](Cc1cnc[nH]1)NC(=O)CNC(=O)[C@@H](NC(=O)[C@H](C)NC(=O)[C@H](Cc1c[nH]c2ccccc12)NC(=O)[C@H](CCC(N)=O)NC(=O)CCNC(=O)CN1CCN(CC(=O)O)CCN(CC(=O)O)CCN(CC(=O)O)CC1)C(C)C)C(N)=O [149Pm-DOTA-β-Ala-BBN[7-14]NH2] | 0.02 ± 0.04 | 0.10 ± 0.03 | 0.21 ± 0.22 | 0.17 ± 0.24 | 2.05 ± 1.63 | 0.42 ± 0.08 | 0.15 ± 0.05 | 0.34 ± 0.30 | 0.04 ± 0.10 | 2.40 ± 1.33 |
| CSCC[C@H](NC(=O)[C@H](CC(C)C)NC(=O)[C@H](Cc1cnc[nH]1)NC(=O)CNC(=O)[C@@H](NC(=O)[C@H](C)NC(=O)[C@H](Cc1c[nH]c2ccccc12)NC(=O)[C@H](CCC(N)=O)NC(=O)CN1CCN(CC(=O)O)CCN(CC(=O)O)CCN(CC(=O)O)CC1)C(C)C)C(N)=O [177Lu-DOTA-0-BBN[7-14]NH2] [metal not drawn] | 0.01 ± 0.01 | 0.05 ± 0.11 | 0.58 ± 0.96 | 0.04 ± 0.09 | 1.21 ± 0.31 | 0.07 ± 0.09 | 0.09 ± 0.06 | 0.19 ± 0.26 | 0.09 ± 0.15 | 0.18 ± 0.28 |

Same assay, conditions: 1 hour post-injection

| SMILES | Avg % ID/gm, S. Intestine [% ID/gm] | Avg % ID/gm, Spleen [% ID/gm] | Avg % ID/gm, Stomach [% ID/gm] |
| --- | --- | --- | --- |
| CSCC[C@H](NC(=O)[C@H](CC(C)C)NC(=O)[C@H](Cc1c[nH]cn1)NC(=O)CNC(=O)[C@@H](NC(=O)[C@H](C)NC(=O)[C@H](Cc1c[nH]c2ccccc12)NC(=O)[C@H](CCC(N)=O)NC(=O)CCCCNC(=O)CN1CCN(CC(=O)O)CCN(CC(=O)O)CCN(CC(=O)O)CC1)C(C)C)C(N)=O [149Pm-DOTA-5-Ava-BBN[7-14]NH2] | 5.15 ± 1.20 | 2.37 ± 1.36 | 1.90 ± 1.60 |
| CSCC[C@H](NC(=O)[C@H](CC(C)C)NC(=O)[C@H](Cc1cnc[nH]1)NC(=O)CNC(=O)[C@@H](NC(=O)[C@H](C)NC(=O)[C@H](Cc1c[nH]c2ccccc12)NC(=O)[C@H](CCC(N)=O)NC(=O)CCCCCCCNC(=O)CN1CCN(CC(=O)O)CCN(CC(=O)O)CCN(CC(=O)O)CC1)C(C)C)C(N)=O [149Pm-DOTA-8-Aoc-BBN[7-14]NH2] | 12.56 ± 16.70 |  |  |
| CSCC[C@H](NC(=O)[C@H](CC(C)C)NC(=O)[C@H](Cc1cnc[nH]1)NC(=O)CNC(=O)[C@@H](NC(=O)[C@H](C)NC(=O)[C@H](Cc1c[nH]c2ccccc12)NC(=O)[C@H](CCC(N)=O)NC(=O)CCNC(=O)CN1CCN(CC(=O)O)CCN(CC(=O)O)CCN(CC(=O)O)CC1)C(C)C)C(N)=O [149Pm-DOTA-β-Ala-BBN[7-14]NH2] | 0.63 ± 0.20 | 0.16 ± 0.31 | 0.19 ± 0.11 |
| CSCC[C@H](NC(=O)[C@H](CC(C)C)NC(=O)[C@H](Cc1cnc[nH]1)NC(=O)CNC(=O)[C@@H](NC(=O)[C@H](C)NC(=O)[C@H](Cc1c[nH]c2ccccc12)NC(=O)[C@H](CCC(N)=O)NC(=O)CN1CCN(CC(=O)O)CCN(CC(=O)O)CCN(CC(=O)O)CC1)C(C)C)C(N)=O [177Lu-DOTA-0-BBN[7-14]NH2] [metal not drawn] | 0.75 ± 0.60 | 0.04 ± 0.09 | 0.10 ± 0.21 |
